PMC4351158 (Structure (London, England : 1993), 2015)
Positions count from the first letter of the chain named. Names may count otherwise.

B1: WT DegS: Wild-type E. coli DegS (residues 27–355) with N-terminal His6 tag replacing the membrane anchor (protein)
chain: RSLNPLSTPQFDSTDETPASYNLAVRRAAPAVVNVYNRGLNTNSHNQLEIRTLGSGVIMDQRGYIITNKHVINDADQIIVALQDGRVFEALLVGSDSLTDLAVLKINATGGLPTIPINARRVPHIGDVVLAIGNPYNLGQTITQGIISATGRIGLNPTGRQNFLQTDASINHGNSGGALVNSLGELMGINTLSFDKSNDGETPEGIGFAIPFQLATKIMDKLIRDGRVIRGYIGIGGREIAPLHAQGGGIDQLQGIVVNEVSPDGPAANAGIQVNDLIISVDNKPAISALETMDQVAEIRPGSVIPVVVMRDDKQLTLQVTIQEYPATN
modifications: left off: His6, N-terminal, state not stated
B2: H198P/P229A (protein, UniProt P0AEE3 1-355, looked up, variant H198P P229A)
Serine endoprotease DegS: MFVKLLRSVAIGLIVGAILLVAMPSLRSLNPLSTPQFDSTDETPASYNLAVRRAAPAVVNVYNRGLNTNSHNQLEIRTLGSGVIMDQRGYIITNKHVINDADQIIVALQDGRVFEALLVGSDSLTDLAVLKINATGGLPTIPINARRVPHIGDVVLAIGNPYNLGQTITQGIISATGRIGLNPTGRQNFLQTDASINPGNSGGALVNSLGELMGINTLSFDKSNDGETAEGIGFAIPFQLATKIMDKLIRDGRVIRGYIGIGGREIAPLHAQGGGIDQLQGIVVNEVSPDGPAANAGIQVNDLIISVDNKPAISALETMDQVAEIRPGSVIPVVVMRDDKQLTLQVTIQEYPATN
B3: H198P/E230A (protein, UniProt P0AEE3 1-355, looked up, variant H198P E230A)
Serine endoprotease DegS: B2 Serine endoprotease DegS with A229P, E230A
B4: I179A/H198P (protein, UniProt P0AEE3 1-355, looked up, variant I179A H198P)
Serine endoprotease DegS: B2 Serine endoprotease DegS with I179A, A229P
B5: D221A/H198P (protein, UniProt P0AEE3 1-355, looked up, variant D221A H198P)
Serine endoprotease DegS: B2 Serine endoprotease DegS with D221A, A229P
B6: Q187A/H198P (protein, UniProt P0AEE3 1-355, looked up, variant Q187A H198P)
Serine endoprotease DegS: B2 Serine endoprotease DegS with Q187A, A229P
B7: P229A: DegS variant P229A (protein)
chain: B1 chain with P203A
modifications: left off: His6, N-terminal, state not stated
B8: Q187A: DegS variant Q187A (protein)
chain: B1 chain with Q161A
modifications: left off: His6, N-terminal, state not stated
B9: D221A: DegS variant D221A (protein)
chain: B1 chain with D195A
modifications: left off: His6, N-terminal, state not stated
B10: I179A: DegS variant I179A (protein)
chain: B1 chain with I153A
modifications: left off: His6, N-terminal, state not stated
B11: Y162A: DegS variant Y162A (protein)
chain: B1 chain with Y136A
modifications: left off: His6, N-terminal, state not stated
B12: Q191A: DegS variant Q191A (protein)
chain: B1 chain with Q165A
modifications: left off: His6, N-terminal, state not stated
B13: N197A: DegS variant N197A (protein)
chain: B1 chain with N171A
modifications: left off: His6, N-terminal, state not stated
B14: F234A: DegS variant F234A (protein)
chain: B1 chain with F208A
modifications: left off: His6, N-terminal, state not stated
B15: T167V: DegS variant T167V (protein)
chain: B1 chain with T141V
modifications: left off: His6, N-terminal, state not stated
B16: E230A: DegS variant E230A (protein)
chain: B1 chain with E204A
modifications: left off: His6, N-terminal, state not stated
B17: L164A: DegS variant L164A (protein)
chain: B1 chain with L138A
modifications: left off: His6, N-terminal, state not stated
B18: I232A: DegS variant I232A (protein)
chain: B1 chain with I206A
modifications: left off: His6, N-terminal, state not stated
B19: T169A: DegS variant T169A (protein)
chain: B1 chain with T143A
modifications: left off: His6, N-terminal, state not stated

Tested on: DegS
Test: not given
Conditions: substrate-saturated; ref Sohn and Sauer, 2009; cited from earlier work

Row | Molecule | DegS in the active conformation
1 | B1 | ~ 0.3%

Tested on: periplasmic domain of RseA
Test: Cleavage of 35S-labeled RseA periplasmic domain by DegS variants
Type: biochemical, E. coli
Conditions: H198P background; compared to H198P

Row | Molecule | YYF-stimulated cleavage activity, in words
2 | B2 | more active than H198P
3 | B3 | activity within error of H198P

Same assay, conditions: H198P background; with YYF; % of H198P parent

Row | Molecule | YYF-stimulated cleavage activity relative to H198P parental enzyme [%]
4 | B4 | ≥ 65
5 | B5 | ≥ 65
6 | B6 | ≥ 65

Same assay, conditions: WT background; compared to wild-type DegS

Row | Molecule | YYF-stimulated cleavage activity, in words
7 | B7 | more active than wild-type DegS
8 | B8 | reduced YYF-stimulated cleavage activity compared to wild-type DegS
9 | B9 | reduced YYF-stimulated cleavage activity compared to wild-type DegS
10 | B10 | reduced YYF-stimulated cleavage activity compared to wild-type DegS

Same assay, conditions: WT background; with YYF; % of wild-type activity

Row | Molecule | YYF-stimulated cleavage activity relative to wild type
11 | B11 | less than 2%
12 | B12 | less than 2%
13 | B13 | less than 2%
14 | B14 | less than 2%
15 | B15 | less than 2%
16 | B16 | ~ 10%
17 | B17 | less than 2%
18 | B18 | less than 2%
19 | B19 | less than 2%
